This is an account of results in patent US20160009800A1 (XOMA US, published 2016).

Test [1] has as its target T1, human insulin receptor (human, UniProt P06213 28-1382). The experiment in a line: cell-based or functional assay.
In test [2] the target is T1, human insulin receptor. The experiment in a line: FACS, serum-starved CHO-K1 cells expressing human INSR, no insulin. For orientation: Flow cytometry measures light scatter and fluorescence of single cells or particles in a stream.
Experimental: (§1) Twenty five microliter aliquots of cells were plated into 96 well plates, mixed with 25 ul of antibody or PPE and incubated on ice for 1 h.
(§2) The cells were then washed once with FACS buffer and the binding of the antibody was detected by the addition of 25 ul of an appropriate fluorochrome-conjugated secondary antibody. […] After a final 15 min incubation on ice the cells were washed and the pellets resuspended in FACS buffer. The cells were analyzed on a FACSCAN™ (Becton-Dickinson, Milipitas, Calif.) and the data analyzed in both FLOWJO™ (Treestar, Ashland, Oreg.) and Microsoft Excel™.
In test [3] the target is T2, mouse insulin receptor (mouse, UniProt P15208 28-1372).
T2 construct: whole, on cells; also called muINSR; mINSR
Briefly: FACS, serum-starved CHO-K1 cells expressing mouse INSR, no insulin.

For test [4], the target named is T3, mouse insulin receptor complexed with human insulin (mouse; human, UniProt P15208 28-1372; P01308 25-54; P01308 90-110).
T3 construct: whole, on cells;mature; also called muINSR/hINS complex
Briefly: FACS, serum-starved CHO-K1 cells expressing mouse INSR, with insulin.
Experimental: as §1, §2

The target in test [5] is T3, mouse insulin receptor complexed with …. Briefly: FACS, CHO-K1 mouse INSR cells, signal with insulin divided by signal without insulin.
Experimental: as §1, §2
Test [6] has as its target T1, human insulin receptor. The experiment in a line: cell-based or functional assay. The source holds these as a separate data set.
The target of test [7] is T1, human insulin receptor. The experiment in a line: cell-based or functional assay. The source holds these as a separate data set.
The target of test [8] is T4, human insulin receptor complexed with human insulin (human, UniProt P06213 28-1382; P01308 25-54; P01308 90-110).
T4 construct: whole, on cells;mature; also called hINSR-hINS complex; INS/INSR complex
Briefly: KinExA antibody depletion by hINSR8-CHOK1 cells, with 175 nM insulin. A general note: Kinetic exclusion samples the free partner from a solution-phase mixture.
Experimental: (§3) Beads were rotated at room temperature for 6 hours then allowed to settle. Supernatant was replaced with PBS with 50 mg/mL BSA Fraction V (Sigma-Aldrich, St. Louis, Mo.) and rotated overnight at 4° C. […] On the KinExA 3000 the sample was injected at 0.25 mL/minute for 240 seconds, then rinsed for 60 seconds in running buffer (PBS with 0.05% sodium azide), then 240 seconds of the detection solution was injected, followed by a final 90 second wash at 1 mL/minute. The difference in voltage from an early initial time-point and a time point near the end of the run was measured and used to calculate affinities. The INSR concentration on the cells was estimated at 2.5×10⁵ receptors/cell. Affinity was determined using the KinExA software (Sāpidyne, Boise Id.) and EC50's were calculated by non-linear fit in Prism (GraphPad Software, La Jolla Calif.).
(§4) Samples were incubated overnight at 4° C. for 18 hours then centrifuged to pellet cells and supernatants were removed for testing on the KinExA. […] Detection solution used was R-PE-(Fab′)2 fragment goat anti-Human IgG(H+L) (Jackson Immuno Research, West Grove Pa.).

The target in test [9] is T1, human insulin receptor. Briefly: FACS, serum-starved CHO-K1 cells expressing human INSR, no insulin [cont'd].
Experimental: as §1, §2
For test [10], the target named is T4, human insulin receptor complexed with …. Briefly: FACS, serum-starved CHO-K1 cells expressing human INSR, with insulin [cont'd].
Experimental: as §1, §2
Test [11] deals with T3, mouse insulin receptor complexed with …. The experiment in a line: FACS, serum-starved CHO-K1 cells expressing mouse INSR, with insulin [cont'd].
Experimental: as §1, §2
The target in test [12] is T4, human insulin receptor complexed with …. The experiment in a line: FACS, CHO-K1 human INSR cells, signal with insulin divided by signal without insulin [cont'd].
Experimental: as §1, §2
Test [13] deals with T3, mouse insulin receptor complexed with …. The experiment in a line: FACS, CHO-K1 mouse INSR cells, signal with insulin divided by signal without insulin [cont'd].
Experimental: as §1, §2
Test [14] has as its target T5, rabbit insulin receptor (rabbit, UniProt A0A5F9DAH8 25-1377).
T5 construct: whole, on cells
The experiment in a line: FACS on monocytes of rabbit PBMC and on CHO cells expressing rabbit insulin receptor, without insulin.

For test [15], the target named is T2, mouse insulin receptor. Briefly: flow cytometry, biotinylated IgG on mINSR-CHOK1 cells.
Test [16] addresses T1, human insulin receptor. The experiment in a line: cell-based or functional assay. This is another data set of the same source.
The target in test [17] is T2, mouse insulin receptor. Briefly: cell-based or functional assay.
Test [18] concerns the target T2, mouse insulin receptor. The experiment in a line: cell-based or functional assay. The source holds these as a separate data set.
The target of test [19] is T4, human insulin receptor complexed with …. Briefly: KinExA, affinity with insulin against affinity without insulin.
Experimental: as §3, §4
Test [20] addresses T1, human insulin receptor. Briefly: KinExA antibody depletion by hINSR8-CHOK1 cells, without insulin.
Experimental: as §3, §4
Test [21] concerns the target T1, human insulin receptor. Briefly: cell-based or functional assay. This is another data set of the same source.
For test [22], the target named is T2, mouse insulin receptor. Briefly: cell-based or functional assay. This is another data set of the same source.
Test [23] has as its target T4, human insulin receptor complexed with …. The experiment in a line: FACS, serum-starved CHO-K1 cells expressing human INSR, with insulin.
Experimental: as §1, §2
For test [24] the target is unchanged. The experiment in a line: FACS, CHO-K1 human INSR cells, signal with insulin divided by signal without insulin.
Experimental: as §1, §2
The target in test [25] is T5, rabbit insulin receptor. Briefly: FACS on monocytes of rabbit PBMC, without insulin.
Text: Cynomolgus monkey whole blood was obtained from California National Primate Research Center (Davis, Calif.) and rabbit whole blood was obtained from LifeSource Biomedical, LLC (Moffett Field, Calif.). Human PBMC were purified using Ficoll Hypaque from buffy coats obtained from the American Red Cross. Cynomolgus and Rabbit PBMC were than purified using Ficoll Hypaque gradients (Pharmacia). Purified PBMC were frozen and stored in liquid nitrogen prior to use in the assay. Human, cynomolgus and rabbit PBMC were thawed and washed with FACS Buffer (0.5% BSA and 0.1% NaN3 in PBS). Once the cells were prepared, they were used in the FACS staining assay at a final concentration of 2×10⁶ cells/ml.
After washing twice with FACS buffer, cells were stained with various markers to capture monocytes population. Human and cynomolgus cells were stained with CD45 and CD14. Rabbit cells were stained with CD11b and CD14. Antibodies were than incubated for 20 minutes and washed twice with FACS Buffer. Cells were than fixed with 2% paraformaldehyde and equal volume of FACS Buffer was added prior to cell analysis. The cells were analyzed on a FACScan™ (Becton-Dickinson, Franklin Lakes, N.J.) and the data was analyzed using both FloJo™ (Tristar, Paso Robles, Calif.) and GraphPad Prism 5 (GraphPad Software, La Jolla, Calif.).
In test [26] the target is T2, mouse insulin receptor. The experiment in a line: FACS, serum-starved CHO-K1 cells expressing mouse INSR, no insulin [cont'd].

B1: Ab061 (antibody, IgG2, V domains shown)
VH: QMQLVQSGAEVKKTGESLKISCQGYGYRFTDNWIGWVRQMPGRGLEWMGIIYPGDSETRYSPSFQGQVTISADKSISTAYLEWSSLKASDTAMYYCARHAPLAVAGMALGDWGQGTLVTVSS
VL: QTVVTQEPSFSVSPGGTVTLTCGLSSGSVSTGYSPGWYQQTPGQAPRTLVYNTNTRSSGVPDRFSGSILGNKAALTITGAQADDESDYYCALYMGSGTYVFGGGTKLTVL
notes: Negative modulator; also called XPA.015.209
For B1, the “fold change in insulin EC50 (pAKT) relative to isotype control mAb, 10 ug/mL Ab061” value in the test with human insulin receptor [1] was determined as 269 fold. The “FACS area under log transformed data MFI” value with human insulin receptor [2] was found to be 204; with mouse insulin receptor [3] it was 462; in test [4] it was 170. Further, the “FACS area under log transformed data MFI ratio (+insulin/-insulin)” value in test [5] was 0.37.

B2: Ab078 (antibody, IgG2, V domains shown)
VH: QVQLVQSGGGLVQPGGSLRLSCAASGFTFSSYSMNWVRQAPGKGLEWVSSISSSSSYIYYADSVKGRFTISRDNAKNSLYLQMNSLRAEDTAVYYCARDQGGELLGFTGYFDYWGQGTLVTVSS
VL: DIQLTQSPSSLSASVGDRVTITCRASQGISSALAWYQQKPGKAPKVLIYDASSLERGVPSRFSGSGTGTDFTLTISSLQPEDFASYYCHQFNSYPDTFGQGTRLEIK
notes: also called XPA.015.244
With B2, the “pAKT assay, fold-decrease in insulin EC50 relative to isotype control Ab” value in the test with human insulin receptor [6] stood at 3.3 fold. For the same molecule, in the test with human insulin receptor [7], the “fold-change in insulin EC50 (pAkt) relative to isotype control, 20 ug/ml Ab078, human INSR CHO-K1 cells” value was 3 fold. The dissociation constant Kd in [8] came to 340 pM. For the same molecule, the “FACS area under log transformed data MFI” value with human insulin receptor [9] is 11; in [10], 704; in [11] it was 217. Further, the “FACS area under log transformed data MFI ratio (+insulin/-insulin)” value in test [12] was determined as 66; in test [13] it was 17.6. In addition, the binding result with rabbit insulin receptor [14] was “no binding”.

B3: Ab004 (antibody, V domains shown)
VH: EVQLLESGGGLVQPGGSLRLSCAASGFTFRNFAMMWVRQAPGKGLEWVSGISWNSGSIGYADSVKGRFTISRDNSKNTLYLQMNSLRAEDTAVYYCARPSGAYPTPFDNWGQGTLVTVSS
VL: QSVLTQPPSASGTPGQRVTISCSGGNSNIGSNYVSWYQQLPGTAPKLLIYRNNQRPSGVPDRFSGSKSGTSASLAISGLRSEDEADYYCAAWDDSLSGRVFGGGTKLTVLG
notes: Sole member of Bin 7; also called XPA.015.066
As to B3, the binding result with mouse insulin receptor [15] is “binds”.

B4: Ab086 (antibody, IgG2, V domains shown)
VH: EVQLVETGGGVVRPGGSLRLSCAASGFTFGDYGMSWVRQAPGKGLEWVSGINWNGGSTGYADSVKGRFTISRDNAKNSLYLQMNSLRAEDTALYYCARDILGVEFDYWGQGTLVTVSS
VL: QSALTQPASVSGSLGQSITISCTGTSSDIGLYKFVSWYQQHPGKAPKLMIYDVSYRPSGVSNRFSGSSSGNTASLTISGLQAEDEADYYCNSYTSSSTLVVFGGGTKLTVL
notes: also called XPA.015.219
Turning to B4, the binding result with mouse insulin receptor [15] is given as “binds”.

B5: Ab001 (antibody, V domains shown)
VH: EVQLLESGGGLVQPGGSLRLSCAASGFTFSSYEMNWVRQAPGKGLEWVSSISSSSSYIYYADSVKGRFTISRDNSKNTLYLQMNSLRAEDTAVYYCARVRWYKDSDAFDIWGQGTLVTVSS
VL: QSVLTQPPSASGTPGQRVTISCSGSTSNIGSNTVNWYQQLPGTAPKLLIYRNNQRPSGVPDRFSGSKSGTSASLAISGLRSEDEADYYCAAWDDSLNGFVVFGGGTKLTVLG
notes: Positive modulator, Bin 1; also called XPA.015.138
For the molecule B5, in the test with human insulin receptor [16], the “positive modulation of insulin-dependent signaling, pAKT assay, CHOK1 human INSR” value was approximately 10 fold. The “positive modulation of insulin-dependent signaling, pAKT assay, CHOK1 mouse INSR” value with mouse insulin receptor [17] was approximately 10 fold. The “pAKT assay, fold-decrease in insulin EC50 relative to isotype control Ab” value in the test with human insulin receptor [6] stood at 9.7 fold. The “fold-change in insulin EC50 (pAkt) relative to isotype control, 2 ug/ml Ab001, human INSR CHO-K1 cells” value with human insulin receptor [7] is 12 fold. For the same molecule, the “fold-change in insulin EC50 (pAkt) relative to isotype control, 2 ug/ml Ab001, mouse INSR CHO-K1 cells” value with mouse insulin receptor [18] is 7 fold. In test [19], the “Fold Improvement with Insulin” value was 103 fold. In addition, the figures for the Kd (in the test with human insulin receptor [20]; in [8]) were 12000 pM and 116 pM, respectively.

B6: Ab062 (antibody, IgG2, V domains shown)
VH: QVQLQQWGAGLLKPSETLSLTCAVYGGSFSGYYWSWIRQPPGKGLEWIGEINHSGSTNYNPSLKSRVTISVDTSKNQFSLKLSSVTAADTAVYYCARGPSGWYIREFDYWGQGTLVTVSS
VL: QSVLTQPPSVSGAPGQRVTISCTGSSSNIGAGYDVHWYQQLPGTAPKLLIYGNSNRPSGVPDRFSGSKSGTSASLAITGLQAEDEADYYCQSYDSSLSGSGVFGGGTKVTVL
notes: also called XPA.015.211
For the molecule B6, the “fold rise of insulin EC50 (pAkt) in the presence of Ab062” value with human insulin receptor [16] was found to be 6.6 fold. Moreover, in the test with human insulin receptor [21], the “EC50 of pAkt activation without insulin, human INSR CHO-K1 cells” value stood at 2.43 nM. The “relative maximum pAkt activation without insulin, human INSR CHO-K1 cells” value in the test with human insulin receptor [21] came out at 52%. Further, the “EC50 of pAkt activation without insulin, mouse INSR CHO-K1 cells” value with mouse insulin receptor [22] was 1.1 nM. Moreover, the “relative maximum pAkt activation without insulin, mouse INSR CHO-K1 cells” value with mouse insulin receptor [22] came to 34%. In addition, in [19], the “Fold Improvement with Insulin” value was 1.1 fold. The Kd stood at 124 pM in the test with human insulin receptor [20] and 108 pM in test [8]. The “FACS area under log transformed data MFI” value with human insulin receptor [2] came out at 1400; in the test with mouse insulin receptor [3], 1450; in test [23], 790; in test [4], 1010. Further, the results for the “FACS area under log transformed data MFI ratio (+insulin/-insulin)” value in test [24] and in test [5] were 0.57 and 0.7, respectively.

B7: Ab077 (antibody, IgG2, V domains shown)
VH: EVQLVESGGGVVQPGGSLRLSCAASGFTFSSYWMTWVRQAPGKGLEWVANINQDGSEKHYVDSVKGRFTISRDNAKNSLYLQMNSLRGEDTAVYYCARGRGAWAFDYWGQGTLVTVSS
VL: DIQMTQSPSSLSASVGDRVTITCRASQGISSWLAWYQQKPGKAPKLLIYAASSLQSGVPSRFSGSGSGTDFTLTISSLQPEDFATYYCQQANSFPITFGQGTRLEIK
notes: also called XPA.015.243
For the molecule B7, the “fold-change in insulin EC50 (pAkt) relative to isotype control, 10 ug/ml Ab077, human INSR CHO-K1 cells” value with human insulin receptor [7] was found to be 9 fold. Also, the “fold-change in insulin EC50 (pAkt) relative to isotype control, 20 ug/ml Ab077, mouse INSR CHO-K1 cells” value with mouse insulin receptor [18] stood at 8 fold. For the same molecule, the binding result with rabbit insulin receptor [25] is listed as “no binding”. This molecule had a Kd in [8] of 6400 pM. For the same molecule, the “FACS area under log transformed data MFI” value with human insulin receptor [9] is 127; in the test with mouse insulin receptor [26], 45; in test [10] it was 268; in test [11], 103. Further, the “FACS area under log transformed data MFI ratio (+insulin/-insulin)” value in [12] was found to be 2.12; in test [13] it was 2.28.

B8: Ab070 (antibody, IgG2, V domains shown)
VH: EVQLVQSGAEVKKPGESLKISCKGSGYSFTSYWIGWVRQMPGKGLEWMGIIYPGDSDTRYSPSFQGQVTISADKSISTSYLQWSSLRASDTAMYYCARLGSGWYGNDYWGQGTLVTVSS
VL: SSELTQDPAVSVALGQTVRITCQGDSLRSYYTSWYQQKPGQAPVLVIFGKNNRPSGIPDRFSGSSSGNTASLTITGAQAEDEADYYCNSRDSSGNYAVFGGGTQLTVL
notes: Negative modulator; also called XPA.015.226
On to B8, for which the “fold change in insulin EC50 (pAKT) relative to isotype control mAb, 20 ug/mL Ab070” value in the test with human insulin receptor [1] came out at 17 fold. The “FACS area under log transformed data MFI” value with human insulin receptor [9] is 283; with mouse insulin receptor [26], 587; in test [11] it was 389. The “FACS area under log transformed data MFI ratio (+insulin/-insulin)” value in test [13] amounted to 0.66.

As a reminder, the Kd is the constant that tells how readily two partners part at equilibrium. The low end stands for tighter binding, the high end for weaker binding.
